In the supplement of paper PMC7125110:
± gives the standard error. Variants at the floor of the assay were thinned out.

B1: glmS ribozyme (parent)
chain: AUAAAAGCGCCAGAACUACAGAAAUGUAGUUGACGAGGAGGAGGUUUAUCGAAUUUUCGGCGGAUGCCUCCAAA

Experiments:
Details in all cases: with glucosamine-6-phosphate
glucosamine-6-phosphate [1] = variants of: B1; assay: self-cleavage kobs at 40 uM GlcN6P; higher = faster cleavage; RNA array
Summary of the method: (§1)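 kcat and KM were obtained from weighted Michaelis–Menten fits across concentrations of kobs values. Those came from one- or two-exponential decay fits to per-tile medians normalised to baseline and to non-cleaving reference variants. The variants were barcoded ribozymes transcribed in situ by E. coli RNA polymerase on sequenced MiSeq chips and tracked through a hybridised Cy3 probe at 37 °C, with 40 μM to 10 mM glucosamine-6-phosphate in HEPES/KCl/Mg(OAc)2 buffer flowed in.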

glucosamine-6-phosphate [2] = variants of: B1; assay: self-cleavage kobs at 640 uM GlcN6P; higher = faster cleavage; RNA array
Summary of the method: as §1

glucosamine-6-phosphate [3] = variants of: B1; assay: self-cleavage kobs at 10000 uM GlcN6P; higher = faster cleavage; RNA array
Summary of the method: as §1

glucosamine-6-phosphate [4] = variants of: B1; assay: self-cleavage kobs at 160 uM GlcN6P; higher = faster cleavage; RNA array
Summary of the method: as §1

glucosamine-6-phosphate [5] = variants of: B1; assay: self-cleavage kobs at 2500 uM GlcN6P; higher = faster cleavage; RNA array
Summary of the method: as §1

| Variant | self-cleavage kobs at 40 uM GlcN6P (glucosamine-6-phosphate [1]) [s⁻¹] | self-cleavage kobs at 640 uM GlcN6P (glucosamine-6-phosphate [2]) [s⁻¹] | self-cleavage kobs at 10000 uM GlcN6P (glucosamine-6-phosphate [3]) [s⁻¹] | self-cleavage kobs at 160 uM GlcN6P (glucosamine-6-phosphate [4]) [s⁻¹] | self-cleavage kobs at 2500 uM GlcN6P (glucosamine-6-phosphate [5]) [s⁻¹] |
| --- | --- | --- | --- | --- | --- |
| G9A C70U | < 1e-05 | < 1e-05 | 2.28e-05 ± 1e-05 | – | – |
| A15G U47A C50A | < 1e-05 | – | – | – | – |
| G44C G59C C61A | < 1e-05 | < 1e-05 | < 1e-05 | < 1e-05 | < 1e-05 |
| A39G A42U U57A | < 1e-05 | – | – | < 1e-05 | – |
| U31A A64G | 0.000322 ± 8.5e-05 | 0.00331 ± 0.0006 | 0.0255 ± 0.0096 | 0.000708 ± 0.0002 | 0.00394 ± 0.0012 |
| A15C C71A | 3.98e-05 ± 9.4e-06 | 0.000136 ± 5.9e-05 | 0.00151 ± 0.00019 | 8.22e-05 ± 3.4e-05 | 0.000291 ± 7.5e-05 |
| G13A G44A U65A | < 1e-05 | – | – | – | – |
| G9U A14C | < 1e-05 | < 1e-05 | – | < 1e-05 | – |
| A6G A15C G35A | < 1e-05 | – | < 1e-05 | – | – |
| A36U C50G A64G C70G | 0.000457 ± 0.00012 | – | 0.000194 ± 4.9e-05 | – | 0.000298 ± 0.00013 |
| G37C G60U | < 1e-05 | – | < 1e-05 | < 1e-05 | – |
| U30G A42G | 0.000448 ± 7.5e-05 | 0.00469 ± 0.001 | 0.0206 ± 0.0039 | 0.000561 ± 0.00012 | 0.0119 ± 0.0032 |
| U31A C71U | 0.000386 ± 3.4e-05 | 0.00393 ± 0.00052 | 0.0362 ± 0.0056 | 0.000552 ± 0.0001 | 0.00846 ± 0.0018 |
| U30C U31A G35U G37C | < 1e-05 | – | – | – | – |
| U31C C34A C68U | < 1e-05 | – | < 1e-05 | – | – |
| G43U A53U U65G | < 1e-05 | < 1e-05 | – | – | – |
| G41U G51U A53G | < 1e-05 | – | < 1e-05 | – | – |
| G44U G66U | < 1e-05 | < 1e-05 | < 1e-05 | < 1e-05 | < 1e-05 |
| U30A A33U G41U A53C G60A C68G | < 1e-05 | < 1e-05 | < 1e-05 | < 1e-05 | – |
| G35U A53G | < 1e-05 | < 1e-05 | < 1e-05 | < 1e-05 | < 1e-05 |
